Test results: the nanobody polyreactivity screen of Harvey et al. (2022)

Assay: yeast display, Sf9 membrane polyspecificity reagent, FACS + sequencing; frameworks hold sequencing errors
In short: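 Using colony PCR, genes from sorted yeast display clones were amplified, then sequenced on MiSeq at 2 × 250 and filtered by CDR length. The clones had been stained with 10% biotinylated, detergent-solubilized Sf9 membrane reagent for 1 hour at 4 °C and sorted by FACS into low and high (top ~1%) gates on anti-HA and streptavidin fluorescence. Polyreactivity labels come from the gate of origin.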

Sequence | polyreactivity (PSR sort gate)
QVQLVESGGGLVQAGGSLRLSSAASGRIFDTNAMGGYRQAPGKERELVAAISKSGGSTYYADSVKGRFTISRDNAKNTVYLQMNSLKPEDTAVYFCAAKYTSGRVLFEHGYWGQGSQVTVSS | low polyreactivity
QVQLVESGGGLVQAGGSLRLSSAASGRIFLRNALGWYRQAPGKERESVAAITRGGSTNYADSVKGRFTISRDNAKNTVYLQMNSLKPEDTAVYYCNARYPVVRYDYWGQGTQVTVSS | high polyreactivity
QVQLVESGGGLVQAGGSLRLSSAASGRIFQGNSMGWYRQAPGKERELVAAITTSGGSTYYADSVKGRFTISRDNAKNTVYLQMNSLKPEDTAVYYCNVDPRKRSYDYWGQGPQVTVSS | high polyreactivity
QVQLVESGGGLVQAGGSLRLSSAASGRIFSSYAMGWYRQAPGKERELVAAITSGGSTYYADSVKGRFTISRDNAKNTVYLQMNSLKPEDTAVYYCAAVYVQPPATAQHYYYWGQGTQVTVSS | high polyreactivity
QVQLVESGGGLVQAGGSLRLSSAASGRIFVAYAMGWYRQAPAKERELVAAITWSGTSTYADSVKGRFTISRDNAKNTVYLQMNSLKPEDTAVYYCAKKAIVSDQWDKYDYWGQGTQVTVSS | low polyreactivity
QVQLVESGGGLVQAGGSLRLSSAASGRIIRAYAMGWYRQAPGKERELVADISGGSNTNYADSVKGRFTISRDNAKNTVYLQMNSLKPEDTAVYYCAADAGYWESLWYPYGFYWGQGTQVTVSS | low polyreactivity
QVQLVESGGGLVQAGGSLRLSSAASGRTFAVYAMGWYRQAPGKERELVAAISSGGSTYYADSVKGRFTISRDNAKNTVYLPMNSLKPEDTAVYYCTARWGYRRGDWGQGTQVTVSS | high polyreactivity
QVQLVESGGGLVQAGGSLRLSSAASGRTFFINAMGWYRQAPGKERDLVATITSGGITNYADSVKGRFTISRDNAKNTDYLQMNSLKPEDTAVYYCAVRWYGKYSGVRYYYWGQGTQVTVSS | high polyreactivity
QVQLVESGGGLVQAGGSLRLSSAASGRTFFPNAMGWYRQAPGKERELVAAISSGGGGTYYADSVKGRFTISRDKAKNTVYLQMNRLKPEDTAVYYCAGRNSKVEEEGNYWGQGTQVTVSS | low polyreactivity
QVQLVESGGGLVQAGGSLRLSSAASGRTFFYYAMGWYRQAPGKERELVAVISGSGARTYYADSVKGRFTISRDNAKYTVYLQMNSLKPEDTAVYYWIKVFARSRSSRYQAYDYWGQGTQVTVSS | high polyreactivity
QVQLVESGGGLVQAGGSLRLSSAASGRTFPSYAMGWYRQAPGKERELVAAISSSGGSTYYADSVKGRFTISRDNAKNTFYLQMNSLKPEDTAVYYCNKQFPYAKYYIMGYWGQGTQVTVSS | high polyreactivity
QVQLVESGGGLVQAGGSLRLSSAASGRTFTVNAMGSYRQAPGKERELVAAISQRGASTYYADSVKGRFTISRDNAKNTVYLQMNSLKPVDTAVYYCAAHLRYKYDYWGQGTQVTVSS | high polyreactivity
QVQLVESGGGLVQAGGSLRLSSAASGRTFTYYAMGWYRQAPGTERELVAAISSGGRTDYADSVKGRFTISRDNAKNTVYLQMNSLKPEDTAVYYCNARPKVYYREYDYWGQGNQVTVSS | high polyreactivity
QVQLVESGGGLVQAGGSLRLSSAASGRTFYSNAMGWYRQAPGKEREFVAAINWSGTSTYADSVKGRFTISRDNAKNTVYLQMNSLKPEDTAVYYCAKTYRTLVRYWGQPFGYWGQGTQVTVSS | high polyreactivity
QVQLVESGGGLVQAGGSLRLSSAASGRTLARNAMGWYRQAPGKERELVAGITSGGSTDYADSVKGRFTISRDNAKNTVYLQMNSLKPEDTAVYYCNRDAGPGGDYWGQGTQGTVSS | low polyreactivity
QVQLVESGGGLVQAGGSLRLSSAASGSIFAWYGMGWYRQAPGKERELVAAISTAGSTNYADSVKGRFTISRDNAKNTVYLQMNSLKPEDTAVYYCAKKSSWYYPERFDYWGQGTQVTVSS | low polyreactivity
QVQLVESGGGLVQAGGSLRLSSAASGSIFDYYAMGWSRQAPGKERELVAAISGSGGSTYYADSVKGRFTISRDNAKNTVYLQMNSLKPEDTAVYYCNVYYRRRYDYWGQGTQVTVSS | high polyreactivity
QVQLVESGGGLVQAGGSLRLSSAASGSIFERYTMAWYRLAPGKERELVAVISTGGGSTNYADSVKGRFTFSRDNAKNTVYLQMNSLKPADTAVYYCAASYGYYRYGYWGQGTQVNVSS | high polyreactivity
QVQLVESGGGLVQAGGSLRLSSAASGSIFGSNAMGWYRQAPGKERELVATITTSGGITYYADSVKGRFTISRDTAKNTVYLQMNSLKPEDTAVYYCAAAEGGGLVTYDYWGQGTQVTVSS | low polyreactivity
QVQLVESGGGLVQAGGSLRLSSAASGSIFLGNAMGWYRQAPGKERELVAAISSITGRTYYADSVKGRFTISRDNAKNTVYLQMNSLKPEDTAVYYCAATSLIYGYRTYDYWGQGTQVTVSS | high polyreactivity
QVQLVESGGGLVQAGGSLRLSSAASGSIFLVNAMGWYRQAPGKERELVAAINSGGSTYYADSVKGRFTISRDNAKNTVYLQMNSLKPEDTAVYYCAADFWLKVWQDTDYDFDYWGQGTQVTVSS | low polyreactivity
QVQLVESGGGLVQAGGSLRLSSAASGSIFRIYAMGWYRQAPGKERELVAAMSSGGSTYYADSVKGRFTISRDNAKNTVYLQMNSLKPEDTAVYYCAAYPEYVSGAWYDYWGQGTQVTLSS | low polyreactivity

Sequence | polyreactivity (PSR sort gate)
QVQLVESGGGLVQAGGSLRLSSAASGSIFRWNAMGWYRQAPGKERELVAVITWRGGRTYYADSVKGRFTISRDNAKNTVYLQMNSLKPEDTAVYYCGKGRLVTTLFGHYATFEYDSWGQGTQVTVSS | high polyreactivity
QVQLVESGGGLVQAGGSLRLSSAASGSIFSSYAMGWYRQAPGKERELVAAISTGGSTYYADSVKGRFTISRDNAKNTVYLQMNSLKPEDTAVYYCAAGIMDLKLYFSSYDYWGQGTQVTVSS | low polyreactivity
QVQLVESGGGLVQAGGSLRLSSAASGSIFYGNAMGWYRQAPGKESELVAAISARGGSTNYADSVKGRFTISRDNAKITVYLQMNSLIPEDTAVYYCAAKVRVWYYRMDSWGQGTQVTVSS | low polyreactivity
QVQLVESGGGLVQAGGSLRLSSAASGSIFYVYAMGWYRQAPGKERELVAAISRRGARTYYADSVKGRFTISRDNEKNTVYLQMNILKPEDTAVYYCYADQYHTVGYSAEYEYWGQGTQVTVSS | low polyreactivity
QVQLVESGGGLVQAGGSLRLSSAASGSILTPNAMGWYRQAPGKERELVAAINYSGGSTYYADSVKGRFTISRDTAKNTVYLQMNSLKPEDTAVYYCAVPYWYGRGHCYWGQGTQVTVSS | low polyreactivity
QVQLVESGGGLVQAGGSLRLSSAASGSIYGYTMGWYRQAPGKERELVAAINRRADRTYYADSVKGRFTISRDNAKNTVYLEMNILKPEDTAVYYCNKGGWYTLGYWGQGTQVTVSS | high polyreactivity
QVQLVESGGGLVQAGGSLRLSSAASGSTFDDYVMGWYRQAPGKERELVAGINSRGTSTDYADSVKGRFTISRDNAKNTVYLQMNSLKPEDTAVYYCNAESPSGRLFDDAYENDYWGQGTQVTVSS | low polyreactivity
QVQLVESGGGLVQAGGSLRLSSAASGSTFEYNAMGWYRQAPGKERELVASSTNYADSVKGRFTISRDNAKNTVYLQMNSLKPEDTAVYYCAREQGVNRNHDYWGQGTQVTVSS | low polyreactivity
QVQLVESGGGLVQAGGSLRLSSAASGSTFLLNAMGWYRQAPGKERELVAAITWSGSRTYYADSVKGRFTISRDNPKYNVYLQMNSLKPEDTAVYDCAAEYRDTRRYSYDYWGQGTQVTVSW | high polyreactivity
QVQLVESGGGLVQAGGSLRLSSAASGSTFQFYAMGWYRQAPGKERELVADITSGDDTNYADSVKGRFTISRDNAKNTVYLQMNSLKPEDTAVYYCAVEYILFYTRVRSYWFDYWGQGTQVTVSS | low polyreactivity
QVQLVESGGGLVQAGGSLRLSSAASGSTFSLNAMGWYRQAPGKERELVASISSGDSTNYADSVKGRFTISLDNAKNTVYLQMNSLKPEDTAVYYCAADGWVLSLARGYYTYDYWGLGTQVTVSS | low polyreactivity
QVQLVESGGGLVQAGGSLRLSSAASGSTFVNYVMGWYRQAPGKERELVAAISRRGTSTSYADSVKGRFTISRDNAKNTVYLQMNSLKPVDTAVYYCITLRQLGRPFYYWGQGTQVTVSS | high polyreactivity
QVQLVESGGGLVQAGGSLRLSSAASGSTFYLNTMGWYRQAPGKEREFVAAISARGGSTYYADSVKGRFTISRDNAKNTVYLQMNSLKPEDTAVYYCAAKFVRFYWNYDYWGQGTQVTVSS | high polyreactivity
QVQLVESGGGLVQAGGSLRLSSAASGSTFYSYAMRWYRQAPGKERELVAAINWDGVSTYYADSVKGRFSISRDNAMNTVYLQMNSLKPEDTAVYYCAADLFSGYRISGTFYYWGQGTQVTVSS | low polyreactivity
QVQLVESGGGLVQAGGSLRLSSAASGSTFYWYAMGWYRQAPGKERELVASITRSGVRTYYADSVKGRFTISRDNAKNTVYLQMNSLKPEDTAVYYCAAERYYFPRSYRYGYWGQGTQVTVSS | low polyreactivity
QVQLVESGGGLVQAGGSLRLSSAASGSTLYRYAMGWYRQAPGKERELVAAISRSGGNTYYADSVKGRFTISRDNAKNTVYLQMNSLKPEDTAVYYCNADSFIRYDYWGQGTQVTVSS | high polyreactivity
QVQLVESGGGLVQAGGSLRLSSAASGYTFTINTMGWYRQAPGKERELVAAITWRGGSTYYADSVKGRFSISRDNAKNTVYLQMNSLKPEDTAVYYCNKDYYITTTTFDYWGQGTQVTVSS | low polyreactivity
QVQLVESGGGLVQAGGSLRLSSAASRITFDQNAMGWYRQAPGKERELVAAITRGSSTNYADSVKGRFTISRDNAKNTVYLQMNSLKPEDTAVYYCNADGYARFRTYYSRDTREYDYWGQGTQVTVSS | low polyreactivity
QVQLVESGGGLVQAGGSLRLSSAASRSIFDYYAMGWYRQAPGKEREFVAAISESSDSTYYADSVKGRFTISRDNAKNTVYLQMNSLKPEDTAVYYCAGQRGGPFPRVVDLYDYWGQGTQVTVSS | low polyreactivity
QVQLVESGGGLVQAGGSLRLSSAAYGRIFAANANGWYRQAPGKERELVAAISSGGSTNYADSVKGRFTISRDNAKNTVYLPMISLKPEDTAVYYCAADASWYAYCYYYWGQGTQVTVSS | low polyreactivity
QVQLVESGGGLVQAGGSLRLSSAAYGSIFDSNAMGWYRQAPGKERELVAAIRYSGGRTYYADSVKGRFTISRDNAKNTVYLQMNILKPEDTAVYYCAARSKVYKVGYNYWGQGTQVTVSS | high polyreactivity
